Assay results taken from patent US20190270826A1 (Janssen / Centocor, published 2019).

Key:
[1] = biological target: T1, human IL1RAP ECD displayed on HEK-293F cells (pDisplay) (human, UniProt Q9NPH3 21-367); experiment: MSD cell binding, HEK-293F Human (clone HE2) cells displaying human IL1RAP ECD
T1 construct: also called Human clone HE2 IL1RAP FL-ECD cell line
T1 sequence: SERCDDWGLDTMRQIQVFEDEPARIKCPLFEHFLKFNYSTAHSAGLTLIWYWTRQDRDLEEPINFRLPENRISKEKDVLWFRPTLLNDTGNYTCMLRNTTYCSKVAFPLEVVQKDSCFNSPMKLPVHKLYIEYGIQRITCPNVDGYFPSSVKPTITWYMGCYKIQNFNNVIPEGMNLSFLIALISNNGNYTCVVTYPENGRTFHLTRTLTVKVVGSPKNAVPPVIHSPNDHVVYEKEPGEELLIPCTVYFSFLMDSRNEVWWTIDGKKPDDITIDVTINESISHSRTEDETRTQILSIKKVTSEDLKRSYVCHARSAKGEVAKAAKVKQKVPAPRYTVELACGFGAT
Procedure: (§1) Cells were immobilized and IL1RAP antibody samples were assayed in triplicate. Briefly, expression supernatants of purified IL1RAP antibodies were normalized to 10 μg/mL. 5000 cells per well were plated into a 384 well plate (MA6000, cat. L21XB, MSD) and allowed to adhere for 2 hr. Cells were then blocked with 20% FBS in PBS (Gibco) for 15 mins. Antibody supernatants were then added and left at RT for 1 hr. Cells were washed 3 times with PBS and a ruthenium labeled secondary antibody (Mesoscale Discovery) was then added at 2 μg/mL and incubated for 1 hour at room temperature. A further washing step was then applied and 35 μL per well of 2×MSD Read buffer T (surfactant free) was then added and incubated for 5-30 minutes for detection. Plates were then read using Sector Imager 2400 (MSD). Data was normalized to controls and graphed using GraphPad Prism Version 5. A positive binder was determined to be a hit with a signal 3× greater than parental cell line background.
(§2) The MSD cell binding assay described in Example 4 was used to assess IL1RAP binding.

human FcγRI = biological target: T2, human FcγRI (human, UniProt P12314 16-292, limits assumed); experiment: AlphaScreen competition, human FcγRI (n=1); displaced: biotinylated control mAb B21M hIgG1 AlaAla; pH 7.2
T2 construct: GST-tagged, on glutathione acceptor beads; also called FcγRT [sic]
From the text: Measurements were made using an AlphaScreen™ assay (Amplified Luminescent Proximity Homogeneous Assay (ALPHA), PerkinElmer, Wellesley, Mass.), a bead-based luminescent proximity assay. Laser excitation of a donor bead excites oxygen, which if sufficiently close to the acceptor bead generates a cascade of chemiluminescent events, ultimately leading to fluorescence emission at 520-620 nm.

[2] = biological target: T3, rat IL1RAP ECD displayed on HEK-293F cells (pDisplay) (rat, UniProt Q63621 21-367); experiment: MSD cell binding, HEK-293F Rat clone 1 cells displaying rat IL1RAP ECD
T3 sequence: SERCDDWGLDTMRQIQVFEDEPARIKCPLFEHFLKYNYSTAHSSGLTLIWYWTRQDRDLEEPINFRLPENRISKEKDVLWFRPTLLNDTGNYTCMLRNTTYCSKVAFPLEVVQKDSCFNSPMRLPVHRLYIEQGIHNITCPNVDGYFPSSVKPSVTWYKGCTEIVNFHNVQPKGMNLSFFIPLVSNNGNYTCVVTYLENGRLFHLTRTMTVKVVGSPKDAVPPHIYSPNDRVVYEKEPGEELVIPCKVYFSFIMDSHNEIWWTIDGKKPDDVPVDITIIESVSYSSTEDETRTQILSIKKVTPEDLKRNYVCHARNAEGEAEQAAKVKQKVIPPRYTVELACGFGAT
Procedure: as §1, §2

[3] = biological target: T4, human IL1RAP on cells (endogenous) (human, UniProt Q9NPH3 21-570); experiment: cell-based or functional assay
T4 sequence (looked up): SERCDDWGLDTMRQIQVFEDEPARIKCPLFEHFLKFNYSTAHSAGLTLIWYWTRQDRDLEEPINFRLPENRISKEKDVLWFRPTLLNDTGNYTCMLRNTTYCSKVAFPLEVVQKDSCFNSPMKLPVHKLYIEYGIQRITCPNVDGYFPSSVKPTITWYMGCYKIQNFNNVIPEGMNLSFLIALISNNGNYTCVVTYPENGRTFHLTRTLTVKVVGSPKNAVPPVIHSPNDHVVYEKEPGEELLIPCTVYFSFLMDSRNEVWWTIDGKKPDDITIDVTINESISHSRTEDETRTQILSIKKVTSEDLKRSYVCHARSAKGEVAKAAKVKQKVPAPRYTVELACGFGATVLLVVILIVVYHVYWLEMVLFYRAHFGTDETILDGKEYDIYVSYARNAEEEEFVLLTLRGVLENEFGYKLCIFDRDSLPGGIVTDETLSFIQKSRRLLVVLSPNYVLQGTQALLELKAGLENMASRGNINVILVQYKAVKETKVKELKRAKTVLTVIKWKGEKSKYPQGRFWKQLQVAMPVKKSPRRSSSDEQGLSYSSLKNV

[4] = biological target: T5, cyno IL1RAP ECD displayed on HEK-293F cells (pDisplay) (cynomolgus monkey, UniProt P59822 21-367 (rhesus entry)); experiment: MSD cell binding, HEK-293F Cyno (clone CB8) cells displaying cyno IL1RAP ECD
T5 sequence: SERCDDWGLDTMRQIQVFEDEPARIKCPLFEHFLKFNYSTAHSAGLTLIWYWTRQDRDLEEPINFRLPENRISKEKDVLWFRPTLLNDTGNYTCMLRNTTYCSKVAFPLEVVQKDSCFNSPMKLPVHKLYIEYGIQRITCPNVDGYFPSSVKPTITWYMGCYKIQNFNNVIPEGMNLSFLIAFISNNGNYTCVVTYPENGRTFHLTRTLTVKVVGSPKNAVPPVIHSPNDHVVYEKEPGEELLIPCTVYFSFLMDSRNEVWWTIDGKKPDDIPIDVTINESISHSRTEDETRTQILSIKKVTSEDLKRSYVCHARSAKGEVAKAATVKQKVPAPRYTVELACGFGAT
Procedure: as §1, §2

T2 sequence (P12314 16-292 limits assumed): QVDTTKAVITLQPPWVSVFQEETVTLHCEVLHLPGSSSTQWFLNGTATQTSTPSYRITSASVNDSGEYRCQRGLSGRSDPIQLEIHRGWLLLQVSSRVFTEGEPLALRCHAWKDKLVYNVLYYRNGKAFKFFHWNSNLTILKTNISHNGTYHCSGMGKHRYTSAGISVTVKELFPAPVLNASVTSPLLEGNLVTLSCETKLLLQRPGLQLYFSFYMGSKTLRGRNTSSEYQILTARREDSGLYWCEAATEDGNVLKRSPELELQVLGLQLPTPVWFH

- EC50 (read off the curve) [1]: ~1 µg/mL
- IC50 (read off the curve) (human FcγRI): ~90 nM
- binding result [2]: no binding (tested: 100 µg/mL)
- EC50 (read off the curve) [4]: ~1 µg/mL
B1: IC3B19 (bispecific antibody, human IgG4 S228P, kappa, lambda, F234A L235A)
heavy 1: EVQLVESGGGLVQPGGSLRLSCAASGFTFNTYAMNWVRQAPGKGLEWVARIRSKYNNYATYYAASVKGRFTISRDDSKNSLYLQMNSLKTEDTAVYYCARHGNFGNSYVSWFAYWGQGTLVTVSSASTKGPSVFPLAPCSRSTSESTAALGCLVKDYFPEPVTVSWNSGALTSGVHTFPAVLQSSGLYSLSSVVTVPSSSLGTKTYTCNVDHKPSNTKVDKRVESKYGPPCPPCPAPEAAGGPSVFLFPPKPKDTLMISRTPEVTCVVVDVSQEDPEVQFNWYVDGVEVHNAKTKPREEQFNSTYRVVSVLTVLHQDWLNGKEYKCKVSNKGLPSSIEKTISKAKGQPREPQVYTLPPSQEEMTKNQVSLTCLVKGFYPSDIAVEWESNGQPENNYKTTPPVLDSDGSFLLYSKLTVDKSRWQEGNVFSCSVMHEALHNHYTQKSLSLSLGK
light 1: QTVVTQEPSLTVSPGGTVTLTCRSSTGAVTTSNYANWVQQKPGQAPRGLIGGTNKRAPGTPARFSGSLLGGKAALTLSGVQPEDEAEYYCALWYSNLWVFGGGTKLTVLGQPKAAPSVTLFPPSSEELQANKATLVCLISDFYPGAVTVAWKADSSPVKAGVETTTPSKQSNNKYAASSYLSLTPEQWKSHRSYSCQVTHEGSTVEKTVAPTECS
heavy 2: not shown
light 2: DIQLTQSPSFLSASVGDRVTITCRASQGISSYLAWYQQKPGKAPKLLIYAASTLQSGVPSRFSGSGSGTEFTLTISSLQPEDFATYYCQQVNSYPLTFGGGTKVEIKRTVAAPSVFIFPPSDEQLKSGTASVVCLLNNFYPREAKVQWKVDNALQSGNSQESVTEQDSKDSTYSLSSTLTLSKADYEKHKVYACEVTHQGLSSPVTKSFNRGEC
notes: IgG4-PAA, Fab arm exchange; also called IAPB57 x CD3B219; IL1RAP x CD3
- Average EC50, SKNO-1 cytotoxicity in whole blood, 24 hour [3]: 1.82 nM
- Average EC50, SKNO-1 cytotoxicity in whole blood, 48 hour [3]: 1.4 nM
- EC50, SKNO-1 cytotoxicity in whole blood, donor 00201, 24 hour [3]: 3.58 nM
- EC50, SKNO-1 cytotoxicity in whole blood, donor 00201, 48 hour [3]: 0.703 nM
- EC50, SKNO-1 cytotoxicity in whole blood, donor 00263, 24 hour [3]: 1.5 nM
- EC50, SKNO-1 cytotoxicity in whole blood, donor 00263, 48 hour [3]: 0.768 nM
- EC50, SKNO-1 cytotoxicity in whole blood, donor 27050, 24 hour [3]: 1.38 nM
- EC50, SKNO-1 cytotoxicity in whole blood, donor 27050, 48 hour [3]: 3.36 nM
- EC50, SKNO-1 cytotoxicity in whole blood, donor 27060, 24 hour [3]: 1.88 nM
- EC50, SKNO-1 cytotoxicity in whole blood, donor 27060, 48 hour [3]: 1.3 nM
- EC50, SKNO-1 cytotoxicity in whole blood, donor 27067, 24 hour [3]: 0.912 nM
- EC50, SKNO-1 cytotoxicity in whole blood, donor 27067, 48 hour [3]: 0.647 nM
- EC50, SKNO-1 cytotoxicity in whole blood, donor 32771, 24 hour [3]: 1.68 nM
- EC50, SKNO-1 cytotoxicity in whole blood, donor 32782, 48 hour [3]: 1.62 nM
